Measured values reported in PMC3960148, “Atypical Response Regulator ChxR from Chlamydia trachomatis Is Structurally Poised for DNA Binding” (PLoS ONE, 2014).
Residue numbers refer to the chain shown, from its start.

What was measured:
[1] = tested on: ChxR effector domain (ChxREff) (Chlamydia trachomatis); test: EMSA; conditions: EMSA as in ref 17 (buffer, salt, pH, temperature not given); 1 nM IR800-DNA with 50 nM-10 uM ChxREff, triplicate; 44 uM full-length ChxR (wild type, H186A) in …
[2] = biological target: the molecule itself; test: SAXS; full-length ChxR in solution at 1.25, 2.5 and 5.0 mg/ml, 20°C, 5% (v/v) glycerol added; curves extrapolated to infinite dilution; mass estimated from the Porod volume
[3] = biological target: the molecule itself; test: SEC; proper folding of the full-length ChxR Ala mutants was assessed by size exclusion chromatography; the sentence on homodimers names no method

Work on DR2 site of chxR promoter yielded a Kd [1] of 450 nM.

B1: full-length ChxR (natural protein, Chlamydia trachomatis, UniProt A0A0H3MDW1 1-227, looked up)
chain: MAGPKHVLLVSEHWDLFFQTKELLNPEEYRCTIGQQYKQELSADLVVCEYSLLPREIRSPKSLEGSFVLVLLDFFDEETSVDLLDRGFWYLIRPITPRILKSAISLFLSQHSLHSVPESIRFGPNVFYVLKLTVETPEGSVHLTPSESGILKRLLINKGQLCLRKHLLEEIKNHAKAIVARNVDVHIASLRKKLGAYGSRIVTLRGVGYLFSDDGDKKFSQQDTKLS
notes: ChxR, atypical OmpR/PhoB subfamily response regulator of Chlamydia trachomatis, full length; The calculated MW of the dimer is ~56 kDa; also called wild-type ChxR; not shown: His-tag (24 residues), N-terminal, kept
B1 was tested, and the “stoichiometry N” value [2] was 2.

B2: ChxR^H186A (natural protein)
chain: B1 chain with H186A
notes: ChxR of Chlamydia trachomatis, full-length protein with an Ala substitution; Made from the same plasmid as m1; also called His186 substitution; source: mutation introduced into the full-length ChxR plasmid (QuikChange II XL)
B2: binds [3].

B3: full-length ChxR with Ala substitution of Asn182 (natural protein)
chain: B1 chain with N182A
notes: ChxR of Chlamydia trachomatis, full-length protein with an Ala substitution; Made from the same plasmid as m1; also called Asn182 substitution; source: mutation introduced into the full-length ChxR plasmid (QuikChange II XL)
B3: binds [3].

B4: full-length ChxR with Ala substitution of Arg205 (natural protein)
chain: B1 chain with R205A
notes: ChxR of Chlamydia trachomatis, full-length protein with an Ala substitution; Made from the same plasmid as m1; also called Arg205 substitution; source: mutation introduced into the full-length ChxR plasmid (QuikChange II XL)
B4: binds [3].

B5: full-length ChxR with Ala substitution of Lys192 (natural protein)
chain: B1 chain with K192A
notes: ChxR of Chlamydia trachomatis, full-length protein with an Ala substitution; Made from the same plasmid as m1; also called Lys192 substitution; source: mutation introduced into the full-length ChxR plasmid (QuikChange II XL)
B5: binds [3].
